Tests used:
Assay in all cases: two-hybrid library CCmax;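 also: natural log of median RNA to DNA barcode read ratio; higher means stronger binding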
4H3588-AA = target: T1, 4H3588-AA; details: mean of both orientations
T1 chain: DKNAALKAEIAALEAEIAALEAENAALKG

4H3378-AA = target: T2, 4H3378-AA; details: mean of both orientations
T2 chain: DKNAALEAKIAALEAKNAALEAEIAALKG

4H3133-AA = target: T3, 4H3133-AA; details: mean of both orientations
T3 chain: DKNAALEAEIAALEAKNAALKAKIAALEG

4H697-AA = target: T4, 4H697-AA; details: mean of both orientations
T4 chain: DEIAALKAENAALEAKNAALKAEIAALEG

4H3413-AA = target: T5, 4H3413-AA; details: mean of both orientations
T5 chain: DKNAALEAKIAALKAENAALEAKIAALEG

4H2648-AA = target: T6, 4H2648-AA
T6 chain: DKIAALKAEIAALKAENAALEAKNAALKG

4H32-AA = target: T7, 4H32-AA; details: mean of both orientations
T7 chain: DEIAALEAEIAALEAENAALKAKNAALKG

4H3697-AA = target: T8, 4H3697-AA; details: mean of both orientations
T8 chain: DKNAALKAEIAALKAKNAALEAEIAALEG

4H3718-AA = target: T9, 4H3718-AA; details: mean of both orientations
T9 chain: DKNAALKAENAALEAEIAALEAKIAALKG

4H340-AA = target: T10, 4H340-AA; details: mean of both orientations
T10 chain: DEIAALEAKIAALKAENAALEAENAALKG

4H3056-AA = target: T11, 4H3056-AA; details: mean of both orientations
T11 chain: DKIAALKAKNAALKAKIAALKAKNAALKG

4H3606-AA = target: T12, 4H3606-AA; details: mean of both orientations
T12 chain: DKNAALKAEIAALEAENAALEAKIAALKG

4H3865-AA = target: T13, 4H3865-AA; details: mean of both orientations
T13 chain: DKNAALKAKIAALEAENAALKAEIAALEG

4H982-AA = target: T14, 4H982-AA; details: mean of both orientations
T14 chain: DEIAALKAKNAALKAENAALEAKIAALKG

4H3162-AA = target: T15, 4H3162-AA; details: mean of both orientations
T15 chain: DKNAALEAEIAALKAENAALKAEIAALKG

4H384-AA = target: T16, 4H384-AA; details: mean of both orientations
T16 chain: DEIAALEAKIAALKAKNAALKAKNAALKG

4H3631-AA = target: T17, 4H3631-AA; details: mean of both orientations
T17 chain: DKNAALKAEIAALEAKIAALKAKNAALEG

4H2907-AA = target: T18, 4H2907-AA; details: mean of both orientations
T18 chain: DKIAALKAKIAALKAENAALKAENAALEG

4H780-AA = target: T19, 4H780-AA; details: mean of both orientations
T19 chain: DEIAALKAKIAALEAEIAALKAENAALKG

4H906-AA = target: T20, 4H906-AA; details: mean of both orientations
T20 chain: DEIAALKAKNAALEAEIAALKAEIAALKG

4H881-AA = target: T21, 4H881-AA; details: mean of both orientations
T21 chain: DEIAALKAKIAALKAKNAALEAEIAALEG

4H454-AA = target: T22, 4H454-AA; details: mean of both orientations
T22 chain: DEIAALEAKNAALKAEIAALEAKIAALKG

4H2949-AA = target: T23, 4H2949-AA; details: mean of both orientations
T23 chain: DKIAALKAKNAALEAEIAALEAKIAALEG

4H794-AA = target: T24, 4H794-AA; details: mean of both orientations
T24 chain: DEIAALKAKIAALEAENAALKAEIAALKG

4H566-AA = target: T25, 4H566-AA; details: mean of both orientations
T25 chain: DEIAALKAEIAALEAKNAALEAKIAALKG

4H342-AA = target: T26, 4H342-AA; details: mean of both orientations
T26 chain: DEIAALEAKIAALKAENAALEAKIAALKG

4H48-AA = target: T27, 4H48-AA; details: mean of both orientations
T27 chain: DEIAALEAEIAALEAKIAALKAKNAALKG

4H717-AA = target: T28, 4H717-AA; details: mean of both orientations
T28 chain: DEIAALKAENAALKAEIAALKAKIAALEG

4H993-AA = target: T29, 4H993-AA; details: mean of both orientations
T29 chain: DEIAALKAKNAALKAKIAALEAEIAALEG

4H3112-AA = target: T30, 4H3112-AA; details: mean of both orientations
T30 chain: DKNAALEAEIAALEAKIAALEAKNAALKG

4H2883-AA = target: T31, 4H2883-AA; details: mean of both orientations
T31 chain: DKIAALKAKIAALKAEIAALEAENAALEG

4H3921-AA = target: T32, 4H3921-AA; details: mean of both orientations
T32 chain: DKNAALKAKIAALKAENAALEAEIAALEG

4H2505-AA = target: T33, 4H2505-AA; details: mean of both orientations
T33 chain: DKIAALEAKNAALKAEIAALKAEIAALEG

4H2617-AA = target: T34, 4H2617-AA; details: mean of both orientations
T34 chain: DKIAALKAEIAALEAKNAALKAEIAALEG

4H429-AA = target: T35, 4H429-AA; details: mean of both orientations
T35 chain: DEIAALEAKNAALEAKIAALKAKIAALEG

4H2393-AA = target: T36, 4H2393-AA; details: mean of both orientations
T36 chain: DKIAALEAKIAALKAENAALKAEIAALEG

4H3427-AA = target: T37, 4H3427-AA; details: mean of both orientations
T37 chain: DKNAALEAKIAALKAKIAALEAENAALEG

4H2729-AA = target: T38, 4H2729-AA; details: mean of both orientations
T38 chain: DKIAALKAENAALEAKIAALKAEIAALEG

4H3655-AA = target: T39, 4H3655-AA; details: mean of both orientations
T39 chain: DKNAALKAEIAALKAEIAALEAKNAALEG

4H3627-AA = target: T40, 4H3627-AA; details: mean of both orientations
T40 chain: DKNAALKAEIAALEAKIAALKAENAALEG

4H605-AA = target: T41, 4H605-AA; details: mean of both orientations
T41 chain: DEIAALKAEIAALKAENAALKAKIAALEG

4H2354-AA = target: T42, 4H2354-AA
T42 chain: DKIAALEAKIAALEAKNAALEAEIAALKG

4H2466-AA = target: T43, 4H2466-AA
T43 chain: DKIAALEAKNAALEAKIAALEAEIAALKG

4H3844-AA = target: T44, 4H3844-AA; details: mean of both orientations
T44 chain: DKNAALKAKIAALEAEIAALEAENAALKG

4H2944-AA = target: T45, 4H2944-AA; details: mean of both orientations
T45 chain: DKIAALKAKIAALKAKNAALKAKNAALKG

4H3343-AA = target: T46, 4H3343-AA; details: mean of both orientations
T46 chain: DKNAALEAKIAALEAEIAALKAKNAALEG

4H678-AA = target: T47, 4H678-AA; details: mean of both orientations
T47 chain: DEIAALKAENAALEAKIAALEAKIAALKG

4H2754-AA = target: T48, 4H2754-AA; details: mean of both orientations
T48 chain: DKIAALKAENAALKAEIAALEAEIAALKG

4H335-AA = target: T49, 4H335-AA; details: mean of both orientations
T49 chain: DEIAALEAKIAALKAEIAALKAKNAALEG

4H2575-AA = target: T50, 4H2575-AA; details: mean of both orientations
T50 chain: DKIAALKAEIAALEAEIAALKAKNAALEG

4H2642-AA = target: T51, 4H2642-AA; details: mean of both orientations
T51 chain: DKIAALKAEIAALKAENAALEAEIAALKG

4H2837-AA = target: T52, 4H2837-AA; details: mean of both orientations
T52 chain: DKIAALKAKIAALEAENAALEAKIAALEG

4H317-AA = target: T53, 4H317-AA; details: mean of both orientations
T53 chain: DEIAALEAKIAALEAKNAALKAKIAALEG

DKIAALKAEIAALKAENAALEAKNAALKG [4H2648-AA]
interaction score (4H3588-AA): 0.769 | interaction score (4H3378-AA): -1.8 | interaction score (4H3133-AA): -0.651 | interaction score (4H697-AA): -1.14 | interaction score (4H3413-AA): -1.8 | interaction score (4H2648-AA): 0.455 | interaction score (4H32-AA): 1.9 | interaction score (4H3697-AA): -1.06 | interaction score (4H3718-AA): -1.35 | interaction score (4H340-AA): 1.21 | interaction score (4H3056-AA): -1.84 | interaction score (4H3606-AA): -1.35 | interaction score (4H3865-AA): -1.49 | interaction score (4H982-AA): -0.309 | interaction score (4H3162-AA): -1.38 | interaction score (4H384-AA): 1.28 | interaction score (4H3631-AA): -0.735 | interaction score (4H2907-AA): 1.45

DKIAALEAKIAALEAKNAALEAEIAALKG [4H2354-AA]
interaction score (4H780-AA): -1.35 | interaction score (4H906-AA): -1.21 | interaction score (4H881-AA): -0.238 | interaction score (4H454-AA): -0.846 | interaction score (4H2949-AA): -1.56 | interaction score (4H794-AA): -1.09 | interaction score (4H566-AA): 0.225 | interaction score (4H342-AA): 1.11 | interaction score (4H48-AA): -1.39 | interaction score (4H717-AA): -1.79 | interaction score (4H993-AA): -1.38 | interaction score (4H3112-AA): -1.26 | interaction score (4H2883-AA): -1.31 | interaction score (4H3921-AA): -2.02 | interaction score (4H2505-AA): 0.629 | interaction score (4H2617-AA): 0.763 | interaction score (4H429-AA): -1.58 | interaction score (4H2393-AA): -0.967 | interaction score (4H3427-AA): -1.67 | interaction score (4H2729-AA): -1.03 | interaction score (4H3655-AA): -1.28 | interaction score (4H3627-AA): -1.59 | interaction score (4H3606-AA): -0.995 | interaction score (4H605-AA): -1.45 | interaction score (4H2354-AA): 2.28 | interaction score (4H2466-AA): -1.18 | interaction score (4H3844-AA): -1.42 | interaction score (4H2944-AA): -1.22 | interaction score (4H3343-AA): -1.47 | interaction score (4H678-AA): -1.46 | interaction score (4H2754-AA): -1.42 | interaction score (4H335-AA): -1.35 | interaction score (4H2575-AA): -1 | interaction score (4H2642-AA): -0.757 | interaction score (4H2837-AA): -0.0493 | interaction score (4H317-AA): 0.391

— publication PMC10397247
